# Several values for one entry are separate records, joined by “and”; a condition that tells them apart may be missing. Equal values may be shown once.
# B1: [125I]VHH122 (VHH)
# VHH: EVQLQESGGGLVQAGDSLRLSCLVSGRSFNSYTMGWFRQAPGKEREFVAAILWSGPTTYYADSVKGRFTISRDNAKNTVYLQMNSLKPEDTAVYYCAAALGVLVLAPGNVYSYWGQGTQVTVSS
# modifications: 125I label; labelled residues not stated
# notes: not shown: C-terminal 6-His and myc tags from pHEN1-H6
# B2: RP2 (VHH)
# VHH: EVQLQESGGGLVQAGGSLRLSCAASGSTFSNEPFGWYRGAPGKLRELVGTISAGGNTNYVDAVKGRFMISRDNGRRMVYLQMNNLRPDDTAVYYCWNRGYWGQGTQVTVSS
# notes: Random library clone used as negative control, as free VHH; also called random VHH domain RP2; control VHH RP2; not shown: C-terminal 6-His and myc tags from pHEN1-H6
# B3: VHH122 (VHH)
# VHH: B1 VHH
# notes: polyhistidine and myc tagged; also called VH122; not shown: C-terminal 6-His and myc tags from pHEN1-H6
# B4: VHH205 (VHH)
# VHH: QVKLQESGGGLVQSGGSLRLSCIASGSTVSGNTMGWYRQAPGKQRELVAVISSVGVSNVAQSVKGRFAISRDNAKNTVYLQMSSLKPEDTAVYYCNALGTGRANWGQGTQVTVSS
# notes: Free VHH used in SPR; not shown: C-terminal 6-His and myc tags from pHEN1-H6
# B5: VHH03 (VHH)
# VHH: EVKLQQSGGGLVQPGGSLTLSCVTSGFTFSTYGMDWVRQAPGKGFEWVASISFGGGITNYGDFVKGRFTISRDNAKNTLYLHMNGLKPDDTAVYYCQMGSKRGQGTQVTVSS
# Columns and labels:
# human EGFR wild type [1] = molecular target: T1, human EGFR wild type (human, UniProt P00533 25-1210); experiment: saturation binding of 125I-labelled VHH122 on an EGFR-expressing cell, specific binding in CPM
# T1 construct: whole, on cells; also called EGFR on NR6W cells; EGFR in NR6W lysate
# EGFRvIII ECD [2] = molecular target: T2, EGFRvIII ECD (UniProt P00533 25-645); experiment: SPR, Biacore 3000, ECD coupled to CM5 chip
# T2 construct: extracellular domain; Deletion mutant; also called vIII mutant EGFR ECD
# Method: (§1) The ka, kd, and KD values were determined for the binding of two VHH domains to the ECDs of EGFR and EGFRvIII by surface plasmon resonance (SPR). The ECDs were coupled to BIACORE® CM5 chips and VHH domains were sequentially flowed over each protein in the BIACORE® 3000 (GE Healthcare).
# EGFR ECD (wild type) [3] = molecular target: T3, EGFR ECD (wild type) (UniProt P00533 25-645, limits assumed); experiment: SPR, Biacore 3000, ECD coupled to CM5 chip
# T3 construct: extracellular domain; the cell lines carry human EGFR; also called wild type EGFR ECD; EGFR extracellular domain
# Method: as §1
# human EGFR wild type [4] = molecular target: T1, human EGFR wild type; experiment: pull-down from NR6W lysate by His-tagged VHH on a nickel-chelate plate, Western blot with anti-EGFR mAb H11
# Method: The VHH domains were allowed to bind to the plate wells for 16 hr at 4° C., and then the wells were washed 3 times with Tris-buffered saline containing 0.1% (v/v) TWEEN®-20 (TBST). NR6W lysate (450 μg) made with M-PER reagent (Pierce) plus EDTA-free protease inhibitors (Roche Applied Science) was added to each well and allowed to incubate for 16 hr at 4° C. The lysate was removed, and the wells were washed 15 times with TBST. Protein remaining on the well surface was eluted in SDS-PAGE sample buffer containing 1% (v/v) β-mercaptoethanol and 100 mM imidazole, preheated to 95° C. […] The blot was developed with SuperSignal West™ substrate (Pierce) and exposed to film.
# NR6W lysate was added to each well and allowed to incubate for 16 hr at 4° C. The lysate was removed, the wells were washed and remaining protein eluted. Samples were subjected to SDS-PAGE and proteins were transferred to a PVDF membrane that was then probed for EGFR.
# EGFRvIII ECD [5] = molecular target: T2, EGFRvIII ECD; experiment: SPR, Biacore 3000, EGFRvIII ECD on CM5 chip, VHH at 0.6 µM
# Method: as §1
# EGFRvIII ECD [6] = molecular target: T2, EGFRvIII ECD; experiment: SPR, Biacore 3000, ECD on CM5 chip; summary value
# Method: as §1
# EGFR ECD (wild type) [7] = molecular target: T3, EGFR ECD (wild type); experiment: SPR, Biacore 3000, ECD on CM5 chip; summary value
# Method: as §1
# EGFRvIII ECD [8] = molecular target: T2, EGFRvIII ECD; experiment: SPR, Biacore 3000, EGFRvIII ECD on CM5 chip, VHH at 1.0 µM
# Method: as §1
# EGFR ECD (wild type) [9] = molecular target: T3, EGFR ECD (wild type); experiment: SPR, Biacore 3000, EGFR ECD on CM5 chip, VHH at 0.6 µM
# Method: as §1
# EGFR ECD (wild type) [10] = molecular target: T3, EGFR ECD (wild type); experiment: SPR, Biacore 3000, EGFR ECD on CM5 chip, VHH at 1.0 µM
# Method: as §1
# human EGFR wild type [11] = molecular target: T1, human EGFR wild type; experiment: phage format; assay not given
# human EGFRvIII = molecular target: T4, human EGFRvIII (human, UniProt P00533 25-1210); experiment: phage format; assay not given
# T4 construct: whole, on cells; Deletion mutant; also called EGFRvIII on NR6M cells; VIII mutant EGFR
binder,measurement,setting,value
B1,Kd,human EGFR wild type [1],46 nM
B2,binding result,EGFRvIII ECD [2],no binding
same,binding result,EGFR ECD (wild type) [3],no binding
same,binding result,human EGFR wild type [4],no binding (tested: 20 ug VHH per well)
B3,Ka,EGFRvIII ECD [5],3.01e+07 M⁻¹
same,Kd,EGFRvIII ECD [5],33.2 nM
same,koff,EGFRvIII ECD [5],0.00304 s⁻¹
same,kon,EGFRvIII ECD [5],91300 M⁻¹ s⁻¹
same,Kd,EGFRvIII ECD [6],~40 nM
same,Kd,EGFR ECD (wild type) [7],~40 nM
same,Ka,EGFRvIII ECD [8],1.82e+07 M⁻¹
same,Kd,EGFRvIII ECD [8],55 nM
same,koff,EGFRvIII ECD [8],0.00308 s⁻¹
same,kon,EGFRvIII ECD [8],56100 M⁻¹ s⁻¹
same,Ka,EGFR ECD (wild type) [9],2.58e+07 M⁻¹
same,Kd,EGFR ECD (wild type) [9],38.7 nM
same,koff,EGFR ECD (wild type) [9],0.00318 s⁻¹
same,kon,EGFR ECD (wild type) [9],82300 M⁻¹ s⁻¹
same,Ka,EGFR ECD (wild type) [10],4.95e+07 M⁻¹ and 1.73e+07 M⁻¹
same,Kd,EGFR ECD (wild type) [10],20.2 nM and 57.8 nM
same,koff,EGFR ECD (wild type) [10],0.00207 s⁻¹ and 0.00333 s⁻¹
same,kon,EGFR ECD (wild type) [10],57600 M⁻¹ s⁻¹ and 102000 M⁻¹ s⁻¹
B4,Ka,EGFR ECD (wild type) [10],1.34e+07 M⁻¹
same,Kd,EGFR ECD (wild type) [10],74.7 nM
same,koff,EGFR ECD (wild type) [10],0.0115 s⁻¹
same,kon,EGFR ECD (wild type) [10],154000 M⁻¹ s⁻¹
B5,binding result,human EGFR wild type [11],binds
same,binding result,human EGFRvIII,no binding
